In this assay the target is GST-Ran Q69L, GTP-bound (UniProt Q9VZ23). Put plainly: pull-down; GST-Ran loaded with GDP or GST-Ran Q69L loaded with GTP γS, or GST alone, on beads incubated with TIM-V5 expressed in S2 cells, 4 h at 4°C; bound TIM-V5 detected with anti-V5.

For “V5-tagged wild-type TIM (TIMELESS) (from UniProt P49021 1-1398) (natural protein)”, the ratio of binding, Ran GTP over Ran GDP is 1.64.

These data come from PMC4335507.
